Measurements: patent CN114317455A

Tests used:
MCR-1蛋白 [1] = assay: indirect ELISA; MCR-1 coated at 0.2 ug/mL; purified antibody (1 mg/ml) diluted two-fold from 1:1000; goat anti-mouse secondary
MCR-1蛋白 [2] = assay: double-antibody sandwich ELISA; 1HD4 coated at 0.2 mg/ml as capture, HRP-labelled 1JA9 as detection, OD450

Binder | 效价 (ELISA titer, dilution of 1 mg/ml antibody) (dilution factor (1:x)) (MCR-1蛋白 [1]) | 检测抗原灵敏度 (dilution factor) (dilution factor (1:x)) (MCR-1蛋白 [2])
鼠抗MCR-1蛋白单克隆抗体 1HD4 (antibody, V domains shown) VH: VKLQESGPELVKPGASVKVSCKASGYIFTCCKMYWVKQSHGKSLEWIGYFDPYNGDTSSNQKFKGKVTLTVDKSSSTAYMFLNSLTSEDSAVYYCASWLQNYYAMDYWGQGTSVTVSS VL: DVQMTQTTSSLSASLGDRVTISCRASQDISNYLNWYQQKPDGTVKLLIYYTSRLHSGVPSRFSGSGSGADYSLTISNLEEEDIATYFCQQGNTFPYTFGGGTKLEIK | > 1.28e+06 | –
鼠抗MCR-1蛋白单克隆抗体 1JA9 (antibody, V domains shown) VH: VKLQESGPELVKPGASVKMSCRTSGYTFTSYIMHWVKQKPGQGLEWIGYFNPYTDGSKYNEMFNGKATLSSDKSSGTAYMEFSSLTSEDSAVYYCARGPYGNYAMDYWGQGTSVTVSA VL: EILLTQTPLSLPVSLGDQASISCRSSQNIVHSYGNPSLEWYLQKPGQSPKLLIYKVSNRFSGVPDRFSGSGSGTDFTLKISRVEAEDLGVYYCFQASHVPWTFGGGTKLEIKR | > 1.28e+06 | 5.12e+06
